In publication PMC7447803, “DEPS-1 is required for piRNA-dependent silencing and PIWI condensate organisation in Caenorhabditis elegans” (Nature Communications, 2020):

T1: MBP-tagged full-length PRG-1 (C. elegans, UniProt P90786 1-824, Atto-594 label (in the cluster imaging only))
T1 construct: PRG-1, the PIWI protein of C. elegans, full length; Cloned into pMAL-C5X; Unlabelled in the MST titration; also called MBP-PRG-1; MBP-PRG; source: E. coli BL21 (DE3), purified (RNaseA-treated lysate, amylose resin, size-exclusion chromatography)
T1 sequence (looked up): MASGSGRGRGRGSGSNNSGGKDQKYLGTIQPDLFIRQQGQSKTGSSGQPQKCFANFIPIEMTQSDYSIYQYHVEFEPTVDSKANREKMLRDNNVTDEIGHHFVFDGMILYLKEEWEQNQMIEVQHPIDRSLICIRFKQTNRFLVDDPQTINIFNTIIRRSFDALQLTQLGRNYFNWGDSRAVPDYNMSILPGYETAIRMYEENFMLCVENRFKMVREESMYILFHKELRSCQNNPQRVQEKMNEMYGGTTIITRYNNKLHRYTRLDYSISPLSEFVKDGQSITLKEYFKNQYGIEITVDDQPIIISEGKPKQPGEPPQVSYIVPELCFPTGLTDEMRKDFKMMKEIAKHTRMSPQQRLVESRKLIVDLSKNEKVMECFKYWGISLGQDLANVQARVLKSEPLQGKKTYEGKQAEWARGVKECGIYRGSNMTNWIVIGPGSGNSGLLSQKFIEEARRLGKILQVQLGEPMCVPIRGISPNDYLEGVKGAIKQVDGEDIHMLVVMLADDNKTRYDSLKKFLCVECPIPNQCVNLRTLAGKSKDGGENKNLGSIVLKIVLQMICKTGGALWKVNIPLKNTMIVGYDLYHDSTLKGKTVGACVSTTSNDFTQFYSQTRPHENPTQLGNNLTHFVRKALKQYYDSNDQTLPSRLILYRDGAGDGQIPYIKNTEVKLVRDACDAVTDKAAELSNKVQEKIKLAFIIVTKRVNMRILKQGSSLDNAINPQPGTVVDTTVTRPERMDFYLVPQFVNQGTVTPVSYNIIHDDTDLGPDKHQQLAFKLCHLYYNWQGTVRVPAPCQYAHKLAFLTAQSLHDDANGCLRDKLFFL


Legend:
Experiment in all cases: MST; one partner labelled with atto-488 NHS ester at a constant amount, unlabelled partner serially diluted 1:2; 30 mM HEPES pH 7.5, 100 mM K-Ac, 2 mM Mg-Ac, 14 mM BME, 0.01% NP-40; apparent Kd by the law of mass action
[1] = target: DEPS-1 PBS motif peptide (C. elegans)
[2] = target: MBP-tagged full-length DEPS-1 (C. elegans) (UniProt Q9N303)
[3] = target: N-terminal fragment of DEPS-1 (DEPS-1^frag1) (C. elegans) (UniProt Q9N303)
[4] = target: T1, MBP-tagged full-length PRG-1; details: both partners purified

| Kd [1] [nM] | Kd [2] [nM] | Kd [3] [nM] | Kd [4] [nM] | Molecule |
| --- | --- | --- | --- | --- |
| 1900 | 349 | 151 |  | MBP-tagged PRG-1 PIWI domain (from UniProt P90786 1-824) (domain or fragment) |
|  |  |  | 855 ± 133 | MBP-tagged full-length DEPS-1 (natural protein, C. elegans, UniProt Q9N303 1-619, looked up, atto-488 NHS ester label, DEPS-1 (Defective P granules and Sterile-1), C. elegans P granule protein, full length; Cloned into pMAL-C5X; Labelled partner (10 nM) in the MST with MBP-PRG-1; also called MBP-DEPS-1; Defective P granules and Sterile-1; source: E. coli BL21 (DE3), purified (RNaseA-treated lysate, amylose resin, size-exclusion chromatography)) MSERQSKYFDYQGIVISSTGQDNQDSETDLVYLIQAHGKAAPKNIMYGVSKCAFVPTNLERNFDNIEEAKNLERRSKIPLKFGEVILWNESDCDHDKRIILHIKREKPIYEASSSRNGLILKVGGVIQPTSTTSFWTPLCTVTMPETEATRAEPDVWLYAWIRFETTMKSGLDPFNMTATFESFDSCDPSDQARVCEAPWNAGSPDSKFGVWRPDPKPADSDDEIDIEPREGWHLPEDKWAEVIKMQLGLYVGERLLICKELSQFDFIIPLQKPFSRGTDKTLIYPAVGEYFHFSAIWSMQHNGFLIYELQPVPLLRQHVTSVNGNLLTRVVPASIRGLFVDKEGTLGLIDDPHHLLSFFEFHPAGYEFLKAMAEVRAVRTSENKSVRYRIVRTSGMSIFENWLRDTQFVVGPVKGIRINEDTVICAKHPNVYFKIPNNLKEGIPIGGGVQFVGKRQAGVDSEIMITECSPCPAFTCKNYSVSGDTRLFQVYLKPNCDHEQLAESDSMGFVDFRELETPCRGKFLAWVRESITVNDCRRAATIMEVCSTAICPPLIAMSANSSRATSARTTPAGSSIGSRSSIQSRASAATSVSSNRFVGPSSRRTPSGTPQSSTSSRV |
